Experimental data reported in patent publication US20090285840A1, “METHODS FOR TREATING PATHOLOGICAL NEOVASCULARIZATION” (New York Society for the Ruptured and Crippled Maintaining …, priority 2008, published 2009).

Key:
EphB4 = experiment: Alkaline phosphatase shedding assay of transiently expressed EphB4 in mouse embryonic fibroblasts treated with H2O2; assay type: cell-based
Experimental: Stimulation of ADAM9-dependent shedding. […] Alkaline phosphatase shedding assays were performed as described (Weskamp et al., 1996, Cell Biol. 132:717-726; Zheng et al., 2002, J. BioI. Chem. 277:42463-42470) in (mouse embryonic fibroblasts) MEF cells and in pig aortic endothelial cells (PAE cells, kindly provided by Dr. Shahin Rafii). Reactive oxygen species (ROS) assays were performed using a modified version of the procedure reported by Sung et al., 2006, Cancer Res 66:9519-26). Specifically, 20 hours post-transfection, cells maintained at 50-60% culture density were washed twice with OptiMem over the course of 1 hour. […] The resulting supernatants and lysates were collected and assayed in triplicate for alkaline phosphatase activity as described previously (Sahin et al., 2006, “A sensitive method to monitor ectodomain shedding of ligands of the epidermal growth factor receptor,” In Epidermal Growth Factor: Methods and Protocols, In P. J. B. and T. B. Patel eds., Vol. 327, p. 99-113., Humana Press Inc., Totowa, N.J.; Sahin et al., J. Cell Biol. 164:769779; Zheng et al., 2002, J. BioI. Chem. 277:42463-42470). All data presented here representative example from at least three independent assays.
The shedding of EphB4 from Adam9 −/− cells could be rescued by transfection with ADAM9, however, the resulting activity could not be further enhanced by treatment with H2O2. […]

ADAM9 = ADAM9 expression in mouse embryonic fibroblasts treated with H2O2 (immunoblot); assay type: cell-based; conditions: MEF cells from wildtype mice, H2O2 200 μM (highest concentration), 6 hrs
[1] = target: alkaline phosphatase tagged VE-Cadherin (UniProt P05187)
[2] = target: T1, alkaline phosphatase tagged CD34 (amino acids 31-385) (UniProt Q64314)
T1 sequence: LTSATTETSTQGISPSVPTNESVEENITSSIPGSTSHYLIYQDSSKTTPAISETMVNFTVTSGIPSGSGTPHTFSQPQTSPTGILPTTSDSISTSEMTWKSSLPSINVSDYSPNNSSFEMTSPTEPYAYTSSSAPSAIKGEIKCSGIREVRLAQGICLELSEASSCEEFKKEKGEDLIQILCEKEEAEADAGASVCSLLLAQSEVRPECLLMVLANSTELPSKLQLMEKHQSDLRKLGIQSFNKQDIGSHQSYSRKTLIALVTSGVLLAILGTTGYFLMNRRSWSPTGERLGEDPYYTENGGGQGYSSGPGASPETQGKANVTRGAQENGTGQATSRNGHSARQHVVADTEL

[3] = target: T2, alkaline phosphatase tagged E-Selectin (amino acids 31-612) (UniProt Q00690)
T2 sequence: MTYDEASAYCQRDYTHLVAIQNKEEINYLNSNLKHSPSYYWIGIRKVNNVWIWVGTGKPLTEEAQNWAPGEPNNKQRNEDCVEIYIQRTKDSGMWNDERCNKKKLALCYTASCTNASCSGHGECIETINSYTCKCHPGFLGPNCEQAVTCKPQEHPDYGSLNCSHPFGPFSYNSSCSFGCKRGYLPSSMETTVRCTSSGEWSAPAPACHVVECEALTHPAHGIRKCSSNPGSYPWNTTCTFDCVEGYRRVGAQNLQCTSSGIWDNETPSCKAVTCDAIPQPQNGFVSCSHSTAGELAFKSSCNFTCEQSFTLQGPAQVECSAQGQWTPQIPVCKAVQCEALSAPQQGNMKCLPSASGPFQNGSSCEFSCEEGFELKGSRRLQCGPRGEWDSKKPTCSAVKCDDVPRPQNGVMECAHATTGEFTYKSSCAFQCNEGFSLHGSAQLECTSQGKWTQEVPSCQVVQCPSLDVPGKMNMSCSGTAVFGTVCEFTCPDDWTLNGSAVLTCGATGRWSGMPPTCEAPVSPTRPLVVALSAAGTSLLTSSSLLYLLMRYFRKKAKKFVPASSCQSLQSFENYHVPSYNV

[4] = target: alkaline phosphatase tagged CD40 (amino acids 24-278) (UniProt P27512)
[5] = target: alkaline phosphatase tagged CD36 (UniProt P05187)
[6] = target: alkaline phosphatase tagged Tie-2 (amino acids 580-833) (UniProt Q02858)
[7] = target: alkaline phosphatase tagged EphB4 (UniProt P05187)
[8] = target: alkaline phosphatase tagged EphrinB2 (UniProt P05187)
[9] = target: alkaline phosphatase tagged ICAM-1 (amino acids 26-532) (UniProt P13597)
[10] = target: alkaline phosphatase tagged FLK-1 (amino acids 605-859) (UniProt P35918)
[11] = target: T3, alkaline phosphatase tagged VCAM-1 (amino acids 28-739) (UniProt P29533)
T3 sequence: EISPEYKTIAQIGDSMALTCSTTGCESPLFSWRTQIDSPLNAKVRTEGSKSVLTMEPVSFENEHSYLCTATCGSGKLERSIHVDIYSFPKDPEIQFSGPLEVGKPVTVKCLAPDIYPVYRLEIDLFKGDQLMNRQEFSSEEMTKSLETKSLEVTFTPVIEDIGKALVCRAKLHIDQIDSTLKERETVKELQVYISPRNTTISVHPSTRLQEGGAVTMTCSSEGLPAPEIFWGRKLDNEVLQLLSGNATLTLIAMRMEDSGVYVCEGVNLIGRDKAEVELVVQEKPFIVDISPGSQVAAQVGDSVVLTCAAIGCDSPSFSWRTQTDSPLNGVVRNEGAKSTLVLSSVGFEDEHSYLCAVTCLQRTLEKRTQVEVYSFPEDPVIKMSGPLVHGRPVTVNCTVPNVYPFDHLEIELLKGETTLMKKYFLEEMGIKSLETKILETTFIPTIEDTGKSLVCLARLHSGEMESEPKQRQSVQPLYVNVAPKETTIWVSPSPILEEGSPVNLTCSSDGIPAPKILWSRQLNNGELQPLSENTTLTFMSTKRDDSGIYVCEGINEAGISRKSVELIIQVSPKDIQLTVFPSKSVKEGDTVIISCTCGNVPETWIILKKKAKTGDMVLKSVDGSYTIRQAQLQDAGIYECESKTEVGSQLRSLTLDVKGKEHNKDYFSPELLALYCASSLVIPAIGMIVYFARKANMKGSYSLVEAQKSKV

ADAM9 (wild type, overexpressed from an expression construct), sequence (Q13443 whole entry): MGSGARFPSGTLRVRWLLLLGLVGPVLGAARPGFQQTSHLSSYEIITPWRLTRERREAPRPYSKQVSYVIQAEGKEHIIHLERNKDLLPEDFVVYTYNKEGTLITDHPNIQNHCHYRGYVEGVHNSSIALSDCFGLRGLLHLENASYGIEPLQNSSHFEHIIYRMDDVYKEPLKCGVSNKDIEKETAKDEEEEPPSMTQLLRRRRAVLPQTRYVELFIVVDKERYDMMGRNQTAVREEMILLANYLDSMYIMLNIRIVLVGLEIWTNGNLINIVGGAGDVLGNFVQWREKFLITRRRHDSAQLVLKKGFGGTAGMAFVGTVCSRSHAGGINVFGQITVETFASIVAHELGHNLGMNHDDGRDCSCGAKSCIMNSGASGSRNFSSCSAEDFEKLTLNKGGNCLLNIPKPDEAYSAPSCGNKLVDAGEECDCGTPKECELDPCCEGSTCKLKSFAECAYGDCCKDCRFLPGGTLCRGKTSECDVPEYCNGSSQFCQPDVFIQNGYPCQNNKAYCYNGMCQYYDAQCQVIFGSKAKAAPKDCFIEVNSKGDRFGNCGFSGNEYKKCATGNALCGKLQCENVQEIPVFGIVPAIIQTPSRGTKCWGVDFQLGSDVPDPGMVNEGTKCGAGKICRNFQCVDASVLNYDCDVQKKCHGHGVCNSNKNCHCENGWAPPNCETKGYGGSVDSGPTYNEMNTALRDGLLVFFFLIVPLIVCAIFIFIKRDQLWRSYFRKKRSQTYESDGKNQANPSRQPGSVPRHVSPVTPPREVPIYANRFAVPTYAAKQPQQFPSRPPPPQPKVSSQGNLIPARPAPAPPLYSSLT
UniProt Q02858, sequence (Q02858 580-833): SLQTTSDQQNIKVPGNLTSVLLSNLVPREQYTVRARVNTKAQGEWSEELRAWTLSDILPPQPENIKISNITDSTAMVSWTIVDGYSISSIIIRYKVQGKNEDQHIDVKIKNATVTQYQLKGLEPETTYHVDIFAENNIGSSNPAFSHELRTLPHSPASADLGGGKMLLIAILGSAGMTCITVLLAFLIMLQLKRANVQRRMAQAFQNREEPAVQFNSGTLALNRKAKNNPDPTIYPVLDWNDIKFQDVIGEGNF
UniProt P35918, sequence (P35918 605-859): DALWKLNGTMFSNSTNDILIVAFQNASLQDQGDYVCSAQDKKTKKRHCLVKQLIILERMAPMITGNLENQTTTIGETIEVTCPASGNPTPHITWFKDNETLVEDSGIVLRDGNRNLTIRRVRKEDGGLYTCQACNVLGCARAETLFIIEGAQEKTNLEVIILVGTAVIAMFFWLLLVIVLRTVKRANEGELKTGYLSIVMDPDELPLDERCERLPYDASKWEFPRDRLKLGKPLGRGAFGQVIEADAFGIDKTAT
UniProt P13597, sequence (P13597 26-532): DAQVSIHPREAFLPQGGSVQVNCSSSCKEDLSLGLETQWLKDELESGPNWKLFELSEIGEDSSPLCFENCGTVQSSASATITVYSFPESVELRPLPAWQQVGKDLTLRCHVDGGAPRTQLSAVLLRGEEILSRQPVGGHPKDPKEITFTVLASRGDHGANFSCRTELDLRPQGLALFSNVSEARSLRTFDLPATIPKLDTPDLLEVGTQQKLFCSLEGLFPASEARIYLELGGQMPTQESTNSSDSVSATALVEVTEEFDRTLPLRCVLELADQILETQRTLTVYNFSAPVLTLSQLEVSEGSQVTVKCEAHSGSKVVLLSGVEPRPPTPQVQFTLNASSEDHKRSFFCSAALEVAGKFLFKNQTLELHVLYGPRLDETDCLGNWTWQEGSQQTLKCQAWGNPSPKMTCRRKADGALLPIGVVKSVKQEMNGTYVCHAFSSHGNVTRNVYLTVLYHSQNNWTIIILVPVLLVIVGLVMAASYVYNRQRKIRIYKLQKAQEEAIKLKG
UniProt P27512, sequence (P27512 24-278): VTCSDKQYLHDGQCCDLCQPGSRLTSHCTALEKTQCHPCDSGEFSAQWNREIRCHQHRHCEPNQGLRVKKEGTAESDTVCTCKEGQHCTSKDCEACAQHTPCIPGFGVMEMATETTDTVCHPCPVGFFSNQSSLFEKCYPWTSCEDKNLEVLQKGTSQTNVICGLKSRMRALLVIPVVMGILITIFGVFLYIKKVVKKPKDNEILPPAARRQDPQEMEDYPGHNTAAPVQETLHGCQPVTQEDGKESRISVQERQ

| Compound | EphB4 shedding (EphB4; Adam9 −/− cells expressing EphB4, 100 or 200 μM H2O2) | shedding of transiently expressed EphB4 (EphB4; wt MEF cells, 100 or 200 μM H2O2 for 6 hrs) | ADAM9 expression (ADAM9) | shedding (alkaline phosphatase activity released into the supernatant) [1] | shedding (alkaline phosphatase activity released into the supernatant) [2] | shedding (alkaline phosphatase activity released into the supernatant) [3] | shedding (alkaline phosphatase activity released into the supernatant) [4] | shedding (alkaline phosphatase activity released into the supernatant) [5] | shedding (alkaline phosphatase activity released into the supernatant) [6] | shedding (alkaline phosphatase activity released into the supernatant) [7] | shedding (alkaline phosphatase activity released into the supernatant) [8] | shedding (alkaline phosphatase activity released into the supernatant) [9] | shedding (alkaline phosphatase activity released into the supernatant) [10] | shedding (alkaline phosphatase activity released into the supernatant) [11] |
| --- | --- | --- | --- | --- | --- | --- | --- | --- | --- | --- | --- | --- | --- | --- |
| OO [H2O2] | no increase in EphB4 shedding | strong increase in the shedding | increase in ADAM9 expression |  |  |  |  |  |  |  |  |  |  |  |
| ADAM9 (wild type, overexpressed from an expression construct) |  |  |  | overexpression of ADAM9 increased the shedding of CD40, EphB4, Flk1, Tie-2, VE-cadherin and VCAM compared to cells overexpressing ADAM9 E>A together with these substrates | Overexpression of ADAM9 did not increase the shedding of E-selectin, ICAM-1, Ephrin B2, CD34 and CD36 compared to ADAM9 E>A, at least under the conditions used here | Overexpression of ADAM9 did not increase the shedding of E-selectin, ICAM-1, Ephrin B2, CD34 and CD36 compared to ADAM9 E>A, at least under the conditions used here | overexpression of ADAM9 increased the shedding of CD40, EphB4, Flk1, Tie-2, VE-cadherin and VCAM compared to cells overexpressing ADAM9 E>A together with these substrates | Overexpression of ADAM9 did not increase the shedding of E-selectin, ICAM-1, Ephrin B2, CD34 and CD36 compared to ADAM9 E>A, at least under the conditions used here | overexpression of ADAM9 increased the shedding of CD40, EphB4, Flk1, Tie-2, VE-cadherin and VCAM compared to cells overexpressing ADAM9 E>A together with these substrates | overexpression of ADAM9 increased the shedding of CD40, EphB4, Flk1, Tie-2, VE-cadherin and VCAM compared to cells overexpressing ADAM9 E>A together with these substrates | Overexpression of ADAM9 did not increase the shedding of E-selectin, ICAM-1, Ephrin B2, CD34 and CD36 compared to ADAM9 E>A, at least under the conditions used here | Overexpression of ADAM9 did not increase the shedding of E-selectin, ICAM-1, Ephrin B2, CD34 and CD36 compared to ADAM9 E>A, at least under the conditions used here | overexpression of ADAM9 increased the shedding of CD40, EphB4, Flk1, Tie-2, VE-cadherin and VCAM compared to cells overexpressing ADAM9 E>A together with these substrates | overexpression of ADAM9 increased the shedding of CD40, EphB4, Flk1, Tie-2, VE-cadherin and VCAM compared to cells overexpressing ADAM9 E>A together with these substrates |
